Test results from patent US20230227838A1, “ENHANCED CELL SURVIVAL AGAINST BIOTIC AND ABIOTIC STRESSES THROUGH SALICYLICK ACID-INDUCED NPR1 CONDENSATES” (priority 2020, published 2023).

B1: BSL2, BRI1 suppressor 1 (BSU1)-like 2 (protein, UniProt Q9SJF0 1-1018, looked up)
Serine/threonine-protein phosphatase BSL2: MDEDSSMVADNDQDREFQSLDGGQSPSPMERETPQQMNDQSPPPEGGSVPTPPPSDPNPATSQQQAAAVVGQEQQPALVVGPRCAPTYSVVDAMMDKKEDGPGPRCGHTLTAVPAVGDEGTPGYIGPRLVLFGGATALEGNSGGTGTPTSAGSAGIRLAGATADVHCYDVLSNKWTRLTPFGEPPTPRAAHVATAVGTMVVIQGGIGPAGLSAEDLHVLDLTQQRPRWHRVVVQGPGPGPRYGHVMALVGQRYLMAIGGNDGKRPLADVWALDTAAKPYEWRKLEPEGEGPPPCMYATASARSDGLLLLCGGRDANSVPLASAYGLAKHRDGRWEWAIAPGVSPSSRYQHAAVFVNARLHVSGGALGGGRMVEDSSSVAVLDTAAGVWCDTKSVVTSPRTGRYSADAAGGDASVELTRRCRHAAAAVGDLIFIYGGLRGGVLLDDLLVAEDLAAAETTYAASHAAAAAATNSPPGRLPGRYGFSDERNRELSESAADGAVVLGSPVAPPVNGDMHTDISPENALLPGTRRTNKGVEYLVEASAAEAEAISATLAAAKARQVNGEVELPDRDCGAEATPSGKPTFSLIKPDSMGSMSVTPAGIRLHHRAVVVAAETGGALGGMVRQLSIDQFENEGRRVSYGTPESATAARKLLDRQMSINSVPKKVIAHLLKPRGWKPPVRRQFFLDCNEIADLCDSAERIFASEPTVLQLKAPIKIFGDLHGQFGDLMRLFDEYGSPSTAGDISYIDYLFLGDYVDRGQHSLETISLLLALKVEYQHNVHLIRGNHEAADINALFGFRIECIERMGERDGIWVWHRINRLFNWLPLAASIEKKIICMHGGIGRSINHVEQIENIQRPITMEAGSIVLMDLLWSDPTENDSVEGLRPNARGPGLVTFGPDRVMEFCNNNDLQLIVRAHECVMDGFERFAQGHLITLFSATNYCGTANNAGAILVLGRDLVVVPKLIHPLPPALSSPETSPERHIEDTWMQELNANRPATPTRGRPQNSNDRGGSLAWM
B2: ATMEK4, ATMKK4, MKK4, mitogen-activated protein kinase kinase 4 (protein, UniProt O80397 1-366, looked up)
Mitogen-activated protein kinase kinase 4: MRPIQSPPGVSVPVKSRPRRRPDLTLPLPQRDVSLAVPLPLPPTSGGSGGSSGSAPSSGGSASSTNTNSSIEAKNYSDLVRGNRIGSGAGGTVYKVIHRPSSRLYALKVIYGNHEETVRRQICREIEILRDVNHPNVVKCHEMFDQNGEIQVLLEFMDKGSLEGAHVWKEQQLADLSRQILSGLAYLHSRHIVHRDIKPSNLLINSAKNVKIADFGVSRILAQTMDPCNSSVGTIAYMSPERINTDLNQGKYDGYAGDIWSLGVSILEFYLGRFPFPVSRQGDWASLMCAICMSQPPEAPATASPEFRHFISCCLQREPGKRRSAMQLLQHPFILRASPSQNRSPQNLHQLLPPPRPLSSSSSPTT
B3: AtHSBP, HSBP, heat shock factor binding protein (protein, UniProt Q8GW48 1-86, looked up)
Heat shock factor-binding protein: MDGHDSEDTKQSTADMTAFVQNLLQQMQTRFQTMSDSIITKIDDMGGRINELEQSINDLRAEMGVEGTPPPASKSGDEPKTPASSS
B4: MEK1 (protein, UniProt Q94A06 1-354, looked up)
Mitogen-activated protein kinase kinase 1: MNRGSLCPNPICLPPLEQSISKFLTQSGTFKDGDLRVNKDGIQTVSLSEPGAPPPIEPLDNQLSLADLEVIKVIGKGSSGNVQLVKHKLTQQFFALKVIQLNTEESTCRAISQELRINLSSQCPYLVSCYQSFYHNGLVSIILEFMDGGSLADLLKKVGKVPENMLSAICKRVLRGLCYIHHERRIIHRDLKPSNLLINHRGEVKITDFGVSKILTSTSSLANSFVGTYPYMSPERISGSLYSNKSDIWSLGLVLLECATGKFPYTPPEHKKGWSSVYELVDAIVENPPPCAPSNLFSPEFCSFISQCVQKDPRDRKSAKELLEHKFVKMFEDSDTNLSAYFTDAGSLIPPLAN
B5: ATCHR12, Homeotic gene regulator (protein, UniProt F4J9M5 1-1102, looked up)
Probable ATP-dependent DNA helicase CHR12: MVAQQLQERCGGTSQEDPVETTKSLICALNYISRDLPLPPHLFTAVSSIYHGASSSSLSDSDVSPPLPTSPPANKAPYGADLMGEFEDALLKQRPDCESGSRLIQLLDNRNKSHIQRRLSELEELPSTRGEDLQAKCLLELYGLKLRELQGKVRTAVSSEFWLRLNCADVSSQVFDWGMMRLPRPFYGVGDPFAMEADDQFRKKRDAERLSRLEEEEKNLIETAKRKFFAEVLNAVREFQLQIQATQKRRRQRNDGVQAWHGRQRQRATRAEKLRLMALKSDDQEAYMKLVKESKNERLTTLLEETNKLLANLGAAVQRQKDAKLPEGIDLLKDSESDLSELDAPRSEPLQDLLPDQDIDITESDNNDDSNDLLEGQRQYNSAIHSIQEKVTEQPSLLEGGELRSYQLEGLQWMVSLFNNNLNGILADEMGLGKTIQTISLIAYLLENKGVPGPYLIVAPKAVLPNWVNEFATWVPSIAAFLYDGRLEERKAIREKIAGEGKFNVLITHYDLIMRDKAFLKKIEWYYMIVDEGHRLKNHESALAKTLLTGYRIKRRLLLTGTPIQNSLQELWSLLNFLLPHIFNSVQNFEEWFNAPFADRGNVSLTDEEELLIIHRLHHVIRPFILRRKKDEVEKFLPGKTQVILKCDMSAWQKVYYKQVTDMGRVGLQTGSGKSKSLQNLTMQLRKCCNHPYLFVGGDYNMWKKPEIVRASGKFELLDRLLPKLRKAGHRILLFSQMTRLIDVLEIYLTLNDYKYLRLDGTTKTDQRGLLLKQFNEPDSPYFMFLLSTRAGGLGLNLQTADTVIIFDSDWNPQMDQQAEDRAHRIGQKKEVRVFVLVSVGSVEEVILERAKQKMGIDAKVIQAGLFNTTSTAQDRREMLEEIMRKGTSSLGTDVPSEREINRLAARSEDEFWMFERMDEERRRKENYRARLMQEQEVPEWAYTTQTQEEKLNNGKFHFGSVTGKRKRKEIVYSDTLSELQWLKAVESGEDLSKLSMRYNRREENASNTKTSTSKKVIESIQTVSDGTSEEDEEEQEEERAKEMSGKQRVDKSEEEEEEGEEENDGKAIFKWNTHKKKRSRYSFTCSSSDSRAQSSNGSRRK
B6: NIMIN1 (protein, UniProt Q9FNZ5 1-142, looked up)
Protein NIM1-INTERACTING 1: MYPKQFSLYNYSLETMSKDENVESKETIRVDKRVREDEEEEEEKKIDTFFKLIKHYQEARKRRREELAENSGVVRRKSNGGERSGIVVPAFQPEDFSQCRTGLKPPLMFVSDHKEENTKVEQEEDQTEERNEDKALDLNLAL
B7: LURP1, Protein of unknown function (DUF567) (protein, UniProt Q9ZQR8 1-207, looked up)
Protein LURP1: MQQPCVIVGSKYCSPNPVGLAIVRKVMKITDGNFVITSADGKLLFKVKDPLFSLHGKRILLDCSGAKVLTLRGKMMTMHDRWQVFRGGSTEEGALLYTVKRSSMIQLAPKLEVFLANNVEEKICDFKVKGAWLDDSCVVYAGDSDTIIAHMCGKQTMRGFFFGKDHFSVTVDKNVDYAFIASLIVILVEIEKAGFITKMTTQMIIGF
B8: DMR1, HSK, homoserine kinase (protein, UniProt Q8L7R2 35-370, looked up)
Homoserine kinase: CRASVQTLVAVEPEPVFVSVKTFAPATVANLGPGFDFLGCAVDGLGDHVTLRVDPSVRAGEVSISEITGTTTKLSTNPLRNCAGIAAIATMKMLGIRSVGLSLDLHKGLPLGSGLGSSAASAAAAAVAVNEIFGRKLGSDQLVLAGLESEAKVSGYHADNIAPAIMGGFVLIRNYEPLDLKPLRFPSDKDLFFVLVSPDFEAPTKKMRAALPTEIPMVHHVWNSSQAAALVAAVLEGDAVMLGKALSSDKIVEPTRAPLIPGMEAVKKAALEAGAFGCTISGAGPTAVAVIDSEEKGQVIGEKMVEAFWKVGHLKSVASVKKLDNVGARLVNSVSR
B9: TAT3, tyrosine aminotransferase 3 (protein, UniProt Q9SK47 1-445, looked up)
Probable aminotransferase TAT3: MASNGVTNCNANANVWRFKGNGATSDAAAVTLRKLAFGMFKNCTMNSGKTILFPTPGEPSAHSNFRTCPEAEEAVAAAARSGMANSYAPSPGVFKARRAVAEYLNGELPTKLKAEDVYITGGCNQAIEIVIDSLAGNPSANILLPRPGYPHYDARAVYSGLEIRKYDLLPESDWEINLDGLEAAADENTVAMVIINPNNPCGNVYTYDHLNKVAEMARKLGIMIISDEVYDHVVYGDKPFIPMGKFASIAPVITLGSISKGWVNPGWRVGWIAMNDPNGIFVSTGVVQAIEDFLDLTPQPSFILQEALPDILEKTPKEFFEKKIKAMRRNVELSCERLKDIPCLFCPKKPESCSYLWLKLDTSMLNNIKNDFDFCTKLVSEESLILIPGVALGAENWVRISIGTDESVVQEIFDRLKGFYDRHAISKEAIKLSGHAINQIVVSVN

What follows are binders tested against sim3-GFP (Arabidopsis thaliana) (UniProt P93002) (assay: sim3-GFP IP, LC-MS/MS).
sim3-GFP (Arabidopsis thaliana), sequence (P93002 other isoform, or with tags, fused parts or gaps): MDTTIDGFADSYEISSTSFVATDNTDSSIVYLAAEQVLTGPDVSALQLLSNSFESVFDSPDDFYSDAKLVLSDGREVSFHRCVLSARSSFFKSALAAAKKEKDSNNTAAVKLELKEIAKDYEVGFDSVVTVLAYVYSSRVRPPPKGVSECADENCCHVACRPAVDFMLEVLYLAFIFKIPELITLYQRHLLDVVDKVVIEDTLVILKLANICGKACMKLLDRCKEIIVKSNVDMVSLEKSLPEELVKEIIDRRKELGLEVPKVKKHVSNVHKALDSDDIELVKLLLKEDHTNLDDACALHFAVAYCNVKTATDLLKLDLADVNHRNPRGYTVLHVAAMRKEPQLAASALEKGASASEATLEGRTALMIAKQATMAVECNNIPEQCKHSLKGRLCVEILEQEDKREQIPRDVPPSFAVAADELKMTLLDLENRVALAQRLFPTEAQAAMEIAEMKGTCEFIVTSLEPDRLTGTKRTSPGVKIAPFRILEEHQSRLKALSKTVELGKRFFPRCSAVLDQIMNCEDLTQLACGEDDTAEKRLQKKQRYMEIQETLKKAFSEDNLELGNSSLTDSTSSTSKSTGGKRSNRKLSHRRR

Compared with B1, B2 is higher in Normalized Fold Change: SA vs Mock: 2.07 fold for the first, 2.62 fold for the second.

Compared with B3, B4 is lower in Normalized Fold Change: SA vs Mock: 6.22 fold for the first, 4.03 fold for the second.

Compared with B5, B6 is higher in Normalized Fold Change: SA vs Mock: 9.34 fold for the first, 17.7 fold for the second.

First: B7
Second: B8
The Normalized Fold Change: SA vs Mock of the first is higher: 4.63 fold for the first, 2.16 fold for the second.

B9 showed a Normalized Fold Change: SA vs Mock of 18.5 fold.
